Laboratory results taken from patent publication US20100240040A1 (INSTITUT PASTEUR, published 2010).
One block for each binder: values may come before it. Where no end group is shown, it is not given here. Bodipy = not defined here

Assays:
[1] = molecular target: the molecule itself; experiment: circular dichroism and gel filtration (data not shown)
spCC2-LZ = molecular target: T1, spCC2-LZ (murine); experiment: fluorescence anisotropy, 10 µM labelled peptide titrated with spCC2-LZ
T1 construct: also called MOD; minimal oligomerization domain of NEMO
T1 chain: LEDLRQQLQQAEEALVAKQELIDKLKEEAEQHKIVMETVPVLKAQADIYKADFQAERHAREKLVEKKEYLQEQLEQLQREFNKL
From the text: The concentration of spCC2-LZ was determining by amino acid analysis (Vinolo et al; 2006).

[2] = molecular target: NEMO (endogenous, in 70Z/3-C3 cells) (UniProt O88522 1-412, limits assumed); experiment: cell-based or functional assay
NEMO (endogenous, in 70Z/3-C3 cells), sequence (O88522 whole entry): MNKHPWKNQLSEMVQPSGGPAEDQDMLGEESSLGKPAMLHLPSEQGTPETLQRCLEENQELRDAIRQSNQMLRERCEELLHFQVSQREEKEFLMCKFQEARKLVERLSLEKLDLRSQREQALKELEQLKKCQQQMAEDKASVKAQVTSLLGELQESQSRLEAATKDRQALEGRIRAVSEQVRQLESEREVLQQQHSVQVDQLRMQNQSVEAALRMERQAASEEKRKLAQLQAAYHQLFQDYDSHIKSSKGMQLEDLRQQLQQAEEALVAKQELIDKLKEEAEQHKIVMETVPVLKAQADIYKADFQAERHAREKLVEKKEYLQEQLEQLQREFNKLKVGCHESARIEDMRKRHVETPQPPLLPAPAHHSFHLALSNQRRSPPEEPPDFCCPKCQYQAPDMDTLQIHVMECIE

B1: NLM (peptide)
peptide: LKAQADIYKADFQAERHAREK
notes: also called tag-free NLM; NLM peptide of NEMO
binding result [1]: no binding (tested: up to 100 µM)

Kd (spCC2-LZ): 21 µM
B2: BR7-DR NLM (peptide)
peptide: C(Bodipy)RRRRRRRLKAQADIYKARFQAERHAREK
modifications: reading uncertain
notes: also called DR NLM fused to the poly R7 peptide

IC50 of NF-κB activity (β-galactosidase reporter in 70Z/3-C3 cells after PMA, IL-1 or LPS) [2]: 0.9 µM | Kd (spCC2-LZ): 17 µM
B3: BA-DR NLM (peptide)
peptide: C(Bodipy)RQIKIWFQNRRMKWKKLKAQADIYKARFQAERHAREK
modifications: reading uncertain
notes: also called BA-NLM-DR; DR NLM fused to its N-terminus with the antennapedia peptide

Binder: LKAQADIYKARFQAERHAREK (also called tag-free DR NLM; NLM-DR) [DR NLM]
binding result [1]: no binding (tested: up to 100 µM)
